# Measurements published in US10012655B2, “Method for quantitating total HMGB1 protein in biological samples” (INSTITUT PASTEUR, priority 2008, dated 2018).
# B1: rh-HMGB1: recombinant human HMGB1 protein (R&D Systems) (protein, UniProt P09429 1-215, looked up)
# High mobility group protein B1: MGKGDPKKPRGKMSSYAFFVQTCREEHKKKHPDASVNFSEFSKKCSERWKTMSAKEKGKFEDMAKADKARYEREMKTYIPPKGETKKKFKDPNAPKRPPSAFFLFCSEYRPKIKGEHPGLSIGDVAKKLGEMWNNTAADDKQPYEKKAAKLKEKYEKDIAAYRAKGKPDAAKKGVVKAEKSKKKKEEEEDEEDEEDEEEEEDEEDEDEEEDDDDE
# What was measured:
# [1] = system: iDCs; assay: Cytokine and chemokine production by DCs (MAP/Luminex); format: cell-based, human; settings: iDCs 48 h with 1 or 10 μg/ml
# Method: FIG. 3 (a)-(e). aNK-dependent maturation of HIV-1-infected iDCs is mediated by HMGB1 and involves RAGE. (a) Left panel: iDCs were cultured for 24 h either alone or with aNK cells, in the presence of blocking anti-HMGB1 antibodies (10 μg/ml) or glycyrrhizin (10 μg/ml). The maturation status of DCs was determined by flow cytometry with CD86 and HLA-DR—specific antibodies. Right panel: same experiment, but performed with HIV-1 infected iDCs. Data represent mean±sd of at least three independent experiments, and statistical comparisons were made with the non parametric Mann-Whitney test. * p<0.05. (b) iDC (10^6 cells/ml) were cultured for 48 h with increasing concentrations (1-10 μg/ml) of rh-HMGB1. Cells were then stained with anti-CD86, -HLA-DR, -CD80, -CD83, DC-LAMP and -CD40 antibodies and analyzed by flow cytometry. (c) Influence of rh-HMGB1 on cytokine and chemokine production (determined by MAP) by DCs. iDCs (10^6 cells/ml) were incubated for 48 h in medium or in presence of rh-HMGB1 (1 or 10 μg/ml). As a positive control, iDCs were stimulated with LPS (DC0). […] (e) iDC, DC0, uninfected or HIV-1-infected iDC cocultured for 24 h with aNK cells, were incubated with rh-HMGB1 (1 μg/ml) and subsequently stained with anti-RAGE antibodies and analyzed by flow cytometry. […]
# [2] = system: iDCs; assay: Phenotypic maturation of iDCs cultured with rh-HMGB1 or LPS (flow cytometry); format: cell-based, human
# Method: FIG. 1 (a)-(e). aNK cells induce the maturation of primary immature HIV-1-infected DCs. (a) iDCs, generated from purified CD14^+ monocytes in the presence of IL-4 and GM-CSF, were cocultured during 24 h with aNK cells at different ratios. DC survival was determined by flow cytometry with the 7-AAD assay. Surviving DCs were identified as 7AAD^−CD56^− cells. Data represent three independent experiments and values are means±sd. (b) aNK cells induce the maturation of iDCs. Flow cytometry analysis of iDCs, which were either infected with R5-HIV-1 BaL (1 ng/ml of p24) for 3 h or uninfected, were incubated with rNK cells or aNK cells at a ratio of 1:5. Co-staining with HLA-DR and CD86 specific antibodies allowed the identification of mature DCs (CD86^brightHLA-DR^bright) Data from a representative experiment out of three independent experiments are shown. (c) The conditions of infection used in this study were those of a productive infection of iDCs, as shown at day 3 by a significant p24 detection in culture supernatant of infected iDCs and intracellular detection by flow cytometry of p24 in DC targeted by CD40 expression. […] The proportion of mDCs induced by LPS (DC0) (78.1% CD86^brightHLA-DR^bright) is shown as a positive control. […]
# FIG. 3 (a)-(e). aNK-dependent maturation of HIV-1-infected iDCs is mediated by HMGB1 and involves RAGE. […] The maturation status of DCs was determined by flow cytometry with CD86 and HLA-DR—specific antibodies. […] Cells were then stained with anti-CD86, -HLA-DR, -CD80, -CD83, DC-LAMP and -CD40 antibodies and analyzed by flow cytometry. (c) Influence of rh-HMGB1 on cytokine and chemokine production (determined by MAP) by DCs. iDCs (10^6 cells/ml) were incubated for 48 h in medium or in presence of rh-HMGB1 (1 or 10 μg/ml). […] (e) iDC, DC0, uninfected or HIV-1-infected iDC cocultured for 24 h with aNK cells, were incubated with rh-HMGB1 (1 μg/ml) and subsequently stained with anti-RAGE antibodies and analyzed by flow cytometry. […]
molecule,measurement,setting,value
B1,"release of the chemokines MCP1, MIP-1α, MIP-1β and IL-8",[1],increased release
same,percentage of CD86bright HLA-DRbright DCs,"[2]; 10 μg/ml, 48 h of culture, medium alone 65%",71%
same,phenotypic maturation of iDC,"[2]; 24 h with 1 to 10 μg/ml, similar at 48 h",did not induce phenotypic maturation of iDC
same,"maturation status by CD80, CD83 and DC-lamp expression","[2]; rh-HMGB1-treated DCs, 48 h, compared with DC0",not fully mature
